{"source": "patent US12098206B2", "about": "“PDGF receptor antibody and use thereof” (Seoul National University R&DB Foundation, priority 2018, dated 2024)", "molecules": {"B1": {"name": "PRb-CN26: anti-hPDGFR-β scFv clone (VH SEQ ID NO 55, VL SEQ ID NO 56), tested as scFv-Cκ-anti-cotinine scFv bispecific antibody (antibody, V domains shown)", "VH": "AVTLDESGGGLQTPGGGLSLVCKASGFTFSDRGIHWVRQAPGKGLEWVAGIGNTGSYTAYAPAVKGRATISRDNGQSTVRLQLNNLRAEDTATYYCAKRGFMDAGGIDAWGHGTEVIVSSTS", "VL": "LTQPSSVSANPGETVKITCSGGGSYAGSYYYGWYQQKSPGSAPVTVIYDNTNRPSNIPSRFSGSLSGSTDTLTITGVQAEDEAVYFCGGYDGISDTGIFGAGTTLTVL", "modifications": "VH of PRb-CN26; VL of PRb-CN26"}, "B2": {"name": "PRb-CN16: anti-hPDGFR-β scFv clone (VH SEQ ID NO 39, VL SEQ ID NO 40), tested as scFv-Cκ-anti-cotinine scFv bispecific antibody (antibody, V domains shown)", "VH": "AVTLDESGGGLQTPGTALSLVCKASGFTFSSFNMAWVRQAPGKGLEFVGEISNTAGSTFYAPAVKGRATISRDNGQSTVRLQLNNLRAEDTAIYYCAKAAGTCYSHSCTGYIDAWGHGTEVIVSSTS", "VL": "LTQPSSVSANPGETVKITCSGSSSSYGWYQQKSPGSAPVTLIYENNQRPSNIPSRFSGSKSGSTGTLTITGVQAEDEAVYYCGNADRSNSAGTFGAGTTLTVL", "modifications": "VH of PRb-CN16; VL of PRb-CN16"}, "B3": {"name": "PRb-CN32: anti-hPDGFR-β scFv clone (VH SEQ ID NO 47, VL SEQ ID NO 48), tested as scFv-Cκ-anti-cotinine scFv bispecific antibody (antibody, V domains shown)", "VH": "AVTLDESGGGLQTPRGTLSLVCKASGFTFSSFNMFWVRQAPGKGLEFVAGISTTGRYTGYGSAVQGRGTISRDNGQSTVRLQLNNLRAEDTGTYYCAKSAGSTYSYWDSDAGLIDAWGHGTEVIVSSTS", "VL": "LTQPSSVSANLGETVKITCSGGSNAGSYYYGWYQQKSPGSAPVTVIYSNNQRPSDIPSRFSGSTSGSTSTLTITGVQVDDEAVYFCGSGDSSSIAAFGAGTTLTVL", "modifications": "VH of PRb-CN32; VL of PRb-CN32"}}, "note": "“Also recorded” adds a separate entry of the source."}
{"system": "human pericyte cells", "assay": "Anti-proliferative (cytotoxicity) test in human pericyte cells, cellular ATP", "format": "cell-based", "details": "with or without hPDGF-BB; FIGS. 14a and 14b", "method": "Human pericyte cells were added to 50 μL of DMEM supplemented with 10% FBS and 1% penicillin/streptomycin, placed in a 96-well plate (CLS3595, Corning) and incubated overnight in 5% CO2 at 37° C. incubator. In each well containing 50 μL of cells, 50 μL of 50 anti-hPDGFR-β x cotinine scFv-Cκ-scFv fusion protein (25.6 pM-2 μM) complexed with cot-duo was added and incubated for 72 hours in 5% CO2 and 37° C. incubator.\nTo evaluate the effect of hPDGF-BB on the toxicity of the complex of the bispecific antibody of scFv-Cκ-scFv and cot-duo, hPDGF-BB (2 nM) was added together with 50 μL of the bispecific antibody scFv-Cκ-scFv and cot-duo complex. The mixed complexes were added to 50 μL of cell-containing solution. The bispecific antibody anti-mCD154 x cotinine scFv-Cκ-scFv was used as a control. Other experimental methods were carried out in the same manner as in the protocol of the anti-mPDGFR-β x cotinine scFv-Cκ-scFv fusion protein in Example 7.\nIn order to evaluate the toxicity of the anti-hPDGFR-β x cotinine scFv-Cκ-scFv fusion protein and cot-duo complexes, the complex was treated in human pericyte cells with or without hPDGF-BB, and the cells were […] to measure the relative viability. The toxicity of the bispecific antibody of anti-hPDGFR-β x cotinine scFv-Cκ-scFv fusion protein and cot-duo complex was shown by IC50 (Table 8)."}
{"molecule": "B1", "toxicity of complex with cot-duo in human pericyte cells, comparison": "higher toxicity than control anti-mCD154 x cotinine scFv-Cκ-scFv; also recorded: highest cytotoxicity"}
{"molecule": "B2", "toxicity of complex with cot-duo in human pericyte cells, comparison": "higher toxicity than control anti-mCD154 x cotinine scFv-Cκ-scFv"}
{"molecule": "B3", "toxicity of complex with cot-duo in human pericyte cells, comparison": "higher toxicity than control anti-mCD154 x cotinine scFv-Cκ-scFv; also recorded: highest cytotoxicity"}
{"biological_target": "T1, mPDGFR-β (Mus musculus, UniProt P05622)", "T1 construct": "mPDGFR-β", "T1 sequence (P05622 32-530)": "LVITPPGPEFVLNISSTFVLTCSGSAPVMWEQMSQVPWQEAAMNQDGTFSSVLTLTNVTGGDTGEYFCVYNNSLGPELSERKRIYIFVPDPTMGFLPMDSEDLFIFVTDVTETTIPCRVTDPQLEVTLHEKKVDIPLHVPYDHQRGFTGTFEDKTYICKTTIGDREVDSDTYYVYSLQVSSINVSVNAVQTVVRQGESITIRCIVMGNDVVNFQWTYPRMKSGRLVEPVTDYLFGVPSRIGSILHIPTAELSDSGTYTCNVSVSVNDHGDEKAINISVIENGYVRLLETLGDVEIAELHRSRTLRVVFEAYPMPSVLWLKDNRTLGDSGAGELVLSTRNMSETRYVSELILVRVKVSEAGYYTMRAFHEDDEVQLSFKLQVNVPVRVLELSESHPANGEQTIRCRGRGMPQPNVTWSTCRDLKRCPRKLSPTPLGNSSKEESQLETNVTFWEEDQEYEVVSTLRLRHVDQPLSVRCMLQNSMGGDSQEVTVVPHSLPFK", "assay": "Cross-species enzyme immunoassay, mPDGFR-β", "format": "binding", "details": "100 nM; FIG. 17", "method": "(§1) 100 ng of hPDGFR-β, mPDGFR-β, rhesus PDGFR-β (90215-C02H, Sino Biological Inc. Beijing, China), cynomolgus monkey PDGFR-β, Sus scrofa PDGFR-β-Fc chimera or TNF-α receptor extracellular domain-human Fc fusion protein was coated with 4° C. temperature O/N. After blocking the wells, sequential culture of the anti-hPDGFR-β scFv-Cκ-scFv fusion protein and the HRP conjugated anti-human Cκ antibody was followed in the same manner as in Example 3.\n(§2) FIG. 17 is a graph showing an experiment of the cross-species reaction of the bispecific antibody against the anti-hPDGFR-β antibody according to the present invention. On the microtiter plates coated with hPDGFR-β, mPDGFR-β, Rhesus PDGFR-β, Cynomolgus monkey PDGFR-β, Sus scrofa PDGFR-β and control Fc coated, the bispecific antibody containing anti-hPDGFR-β antibody according to the present invention (100 nM) was reacted and the amount of bound bispecific antibody was measured using HRP conjugated anti-human Cκ antibody and TMB."}
{"molecule": "B1", "cross-species binding, mPDGFR-β": "confirmed to bind"}
{"molecule": "B2", "cross-species binding, mPDGFR-β": "confirmed to bind"}
{"molecule": "B3", "cross-species binding, mPDGFR-β": "confirmed to bind"}
{"system": "Sus scrofa PDGFR-β", "sequence (as listed by the source)": "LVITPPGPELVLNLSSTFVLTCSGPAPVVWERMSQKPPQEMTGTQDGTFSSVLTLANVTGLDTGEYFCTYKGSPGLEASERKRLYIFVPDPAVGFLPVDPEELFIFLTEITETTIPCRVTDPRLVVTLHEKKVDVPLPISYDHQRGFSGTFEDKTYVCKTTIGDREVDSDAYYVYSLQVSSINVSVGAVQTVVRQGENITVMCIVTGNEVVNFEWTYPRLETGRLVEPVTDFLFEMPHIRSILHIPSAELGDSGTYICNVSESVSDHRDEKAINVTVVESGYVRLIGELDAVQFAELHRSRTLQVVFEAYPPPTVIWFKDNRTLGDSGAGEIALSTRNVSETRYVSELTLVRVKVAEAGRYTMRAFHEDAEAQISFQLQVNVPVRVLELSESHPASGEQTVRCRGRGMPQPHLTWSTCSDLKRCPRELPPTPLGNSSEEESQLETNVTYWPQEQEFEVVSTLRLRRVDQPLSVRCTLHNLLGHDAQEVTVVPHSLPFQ", "assay": "Cross-species enzyme immunoassay, Sus scrofa PDGFR-β", "format": "binding", "details": "100 nM; FIG. 17", "method": "as §1, §2"}
{"molecule": "B1", "cross-species binding, Sus scrofa PDGFR-β": "confirmed to bind"}
{"molecule": "B2", "cross-species binding, Sus scrofa PDGFR-β": "confirmed to bind"}
{"molecule": "B3", "cross-species binding, Sus scrofa PDGFR-β": "confirmed to bind"}
{"biological_target": "T2, hPDGFR-β and cotinine (Homo sapiens, UniProt P09619)", "T2 construct": "made in house", "T2 sequence (P09619 33-531)": "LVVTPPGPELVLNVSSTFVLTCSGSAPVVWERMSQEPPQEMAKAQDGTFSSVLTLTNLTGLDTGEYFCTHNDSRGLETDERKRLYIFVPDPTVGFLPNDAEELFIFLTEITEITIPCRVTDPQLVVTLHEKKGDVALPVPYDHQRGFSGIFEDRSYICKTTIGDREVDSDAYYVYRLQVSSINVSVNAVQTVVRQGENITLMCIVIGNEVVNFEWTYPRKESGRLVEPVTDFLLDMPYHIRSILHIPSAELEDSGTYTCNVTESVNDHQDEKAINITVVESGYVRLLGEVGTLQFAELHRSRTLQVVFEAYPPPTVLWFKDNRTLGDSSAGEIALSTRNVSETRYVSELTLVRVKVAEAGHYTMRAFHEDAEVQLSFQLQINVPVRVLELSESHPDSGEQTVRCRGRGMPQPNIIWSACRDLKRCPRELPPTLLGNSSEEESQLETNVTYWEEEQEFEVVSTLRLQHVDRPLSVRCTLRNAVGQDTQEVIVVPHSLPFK", "assay": "Enzyme immunoassay, simultaneous binding to cotinine and hPDGFR-β", "details": "cotinine-BSA coated wells, then hPDGFR-β-Fc chimera; FIG. 12d", "method": "In order to determine of the simultaneous binding ability of cotinine and hPDGFR-β, an anti-hPDGFR-β x cotinine scFv-Cκ-scFv fusion protein was cultured in wells coated with cotinine-BSA. Washing was performed for each process, and hPDGFR-β-Fc chimeric protein and HRP-anti human Fc antibody were incubated in order. The three kinds of bispecific antibody scFv-Cκ-scFv fusion proteins simultaneously bound to hPDGFR-β and cotinine (FIG. 12d)."}
{"molecule": "B1", "simultaneous binding to hPDGFR-β and cotinine": "capable of simultaneously binding hPDGFR-β and cotinine"}
{"molecule": "B2", "simultaneous binding to hPDGFR-β and cotinine": "capable of simultaneously binding hPDGFR-β and cotinine"}
{"molecule": "B3", "simultaneous binding to hPDGFR-β and cotinine": "capable of simultaneously binding hPDGFR-β and cotinine"}
{"system": "human pericyte cells", "assay": "Internalization analysis by confocal microscopy in human pericyte cells", "format": "cell-based", "details": "10 μg/mL, 37° C., 30 minutes, absence of hPDGF-BB, FIG. 13c", "method": "(§3) Human pericyte cells were treated with the diluted bispecific antibody scFv-Cκ-scFv (10 μg/mL) in pericyte growth medium supplemented with 10% FBS, and internalized at 37° C. for 30 minutes. The analysis was performed in the same manner according to the protocol of the confocal microscope of the anti-mPDGFR-β x cotinine scFv-Cκ-scFv fusion protein of Example 4. After the addition of hPDGF-BB (50 ng/mL) to the bispecific antibody scFv-Cκ-scFv fusion protein, the confocal microscopy experiments were performed according to the same protocol.\n(§4) The internalization of the bispecific antibody scFv-Cκ-scFv fusion protein was visualized. After treatment of human pericyte cells with the fusion protein, antibodies bound to the cell surface were removed. After cell fixation, the fusion protein was stained with FITC-anti human Cκ antibody (green). To visualize early endosomes, the cells were stained with anti-Rab5 antibody and Alexa Fluor 546-goat anti-rabbit antibody IgG (red). […] DNA was stained with DAPI (blue)(Scale bar, 10 μm). FIG. 13d was repeated with hPDGF-BB.\n(§5) To measure the cellular internalization of the bispecific antibody of scFv-Cκ-scFv, anti-hPDGFR-β x cotinine scFv-Cκ-scFv fusion protein was incubated in human pericyte cells, and then treated with FITC-anti-human Cκ antibody and endosome-specific antibody. It was imaged using a confocal microscope. […] When the images were merged, the present inventors confirmed that the fluorescence of the two antibody clones and the endosome-specific antibody were co-localized. […] Internalization of the antibody is very important for delivery of drug into the target cell. […] Therefore, it is useful for intracellular delivery of drug to patients with diseases."}
{"molecule": "B1", "cellular internalization": "not internalized"}
{"molecule": "B2", "cellular internalization": "Intracellular fluorescence was detected"}
{"molecule": "B3", "cellular internalization": "Intracellular fluorescence was detected; also recorded: internalizes most effectively"}
{"system": "human pericyte cells", "assay": "Internalization analysis by confocal microscopy in human pericyte cells", "format": "cell-based", "details": "treated with hPDGF-BB (50 ng/mL), FIG. 13d", "method": "as §3, §4, §5"}
{"molecule": "B1", "cellular internalization": "co-localized with endosome-specific antibody; also recorded: internalized in a large amount within 30 minutes"}
{"molecule": "B2", "cellular internalization": "co-localized with endosome-specific antibody"}
{"molecule": "B3", "cellular internalization": "co-localized with endosome-specific antibody"}
